Measurements reported in patent US20230348630A1 (BEIJING MABWORKS BIOTECH, published 2023).

T1: BCMA-his protein (Cat #: BCA-H522y, ACRO) (human, UniProt Q02223 1-54)
T1 construct: Bought recombinant protein; the construct is most likely only a soluble part of it; also called BCMA protein; human BCMA
T1 sequence: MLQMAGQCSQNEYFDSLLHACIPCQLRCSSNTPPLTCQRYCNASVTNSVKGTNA

T2: human BCMA on HEK293A/human BCMA cells (human, UniProt Q02223 1-184)
T2 sequence: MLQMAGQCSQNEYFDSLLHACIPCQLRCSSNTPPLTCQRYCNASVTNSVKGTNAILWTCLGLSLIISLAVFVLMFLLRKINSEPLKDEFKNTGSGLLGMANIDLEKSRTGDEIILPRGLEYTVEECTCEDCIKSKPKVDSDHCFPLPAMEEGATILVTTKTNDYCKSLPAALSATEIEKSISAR

T3: mouse BCMA on HEK293A/mouse BCMA cells (mouse, UniProt O88472 1-185)
T3 sequence: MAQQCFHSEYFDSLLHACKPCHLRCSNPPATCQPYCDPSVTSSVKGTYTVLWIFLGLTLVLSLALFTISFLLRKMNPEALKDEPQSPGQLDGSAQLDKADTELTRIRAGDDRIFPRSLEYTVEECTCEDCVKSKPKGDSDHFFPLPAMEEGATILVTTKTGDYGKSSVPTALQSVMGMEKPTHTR


How the values were obtained:
[1] = target: T4, CD3D&E protein (Cat #: CT038-H2508H, Sino Biological) (human, UniProt P04234 22-105; P07766 23-126); test: SPR (BIAcore 8K), protocol of Example 10
T4 construct: Bought complex of the delta and epsilon chains; also called CD3D&E complex; human CD3D&E complex
Method: (§1) Following the protocols in Example 5 and Example 10, the bispecific antibodies of the disclosure were tested for their binding affinity to CD3D&E and human BCMA.

[2] = target: T1, BCMA-his protein (Cat #: BCA-H522y, …); test: SPR (BIAcore 8K), protocol of Example 5
Method: as §1

[3] = target: T4, CD3D&E protein (Cat #: CT038-H2508H, …); test: ELISA, coated CD3D&E
Method: (§2) The purified bispecific antibodies were tested for their binding capability to recombinant human CD3 and human BCMA proteins by ELISA, following the protocols in Example 4 and Example 9.

[4] = target: T2, human BCMA on HEK293A/human BCMA cells; test: flow cytometry on HEK293A/human BCMA cells
Method: (§3) The anti-BCMA antibody's binding capability to cell surface BCMAs was tested by FACS. Briefly, HEK293A/human BCMA cells, HEK293A/monkey BCMA cells and HEK293A/mouse BCMA cells, as generated in Example 1, were collected, digested with trypsin, and subjected to centrifugation at 300 g for 5 min. The cells were suspended in PBS, and subjected to centrifugation again. The cells were re-suspended in PBS with 2% FBS at the cell density at 4×10⁶/ml, and 50 μl cells were seeded onto a U-bottom plate. […] The plate was washed with 2% FBS-PBS for three times, added with 50 μl PE-labeled goat-anti-human IgG (H+L) (1: 500), and incubated at room temperature for 45 min. The plate was washed with 2% FBS-PBS again for three times, and added with 150 μl 2% FBS-PBS to suspend the cells. The plate was measured for cell fluorescence using a cytometry, and the data was processed with FlowJo and analyzed with GraphPad.
(§4) Following the protocol of Example 6, the bispecific antibodies of the disclosure were tested for their binding capability to the HEK293A/human BCMA cells, HEK293A/monkey BCMA cells, and HEK293A/mouse BCMA cells as generated in Example 1.

[5] = target: T1, BCMA-his protein (Cat #: BCA-H522y, …); test: ELISA, coated BCMA protein
Method: Briefly, an ELISA plate was coated with 100 μl 1 μg/ml BCMA protein (Cat #: BCA-H522y, ACRO) in PBS overnight at 4° C. Then, the plate was blocked with 250 μl PBST with 4% skimmed milk at room temperature for 1 h. […] The negative control well was added with PBST instead of the antibody. The plate was washed with PBST for three times, added with 100 μl HRP conjugated goat anti-human IgG (1:7000, Cat #: 31413, thermofisher), and incubated at room temperature for 1 h. The plate was washed again with PBST for four times, added with 100 μl freshly prepared TMB (Cat #: 555214, BD, USA), and left still for color development, which was terminated with 50 μl 10% H₂SO₄. The absorbance was read at 450 nm, and the data was processed and analyzed using GraphPad.
as §2

[6] = target: T5, CD3 on Jurkat cells (UniProt P04234 22-171; P07766 23-207); test: flow cytometry on Jurkat cells
T5 construct: whole, on cells
Method: Jurkat cells were collected, centrifuged at 300 g for 5 min, and suspended in PBS. After another centrifugation, the cells were suspended in 2% FBS-PBS at the cell density of 3×10⁶/ml, and […] were plated onto a U-bottom plate. The plate was added with 50 μl serially diluted anti-CD3 antibodies of the disclosure in 2% FBS-PBS (4-fold dilution, starting at 20 μg/ml), and incubated at room temperature for 1 h. The plate was washed with 2% FBS-PBS for three times, added with 50 μl PE-labeled goat-anti-human IgG (H+L) (1: 500), and incubated at room temperature for 45 min. The plate was washed with 2% FBS-PBS again for three times, and added with 150 μl 2% FBS-PBS to suspend the cells. The plate was measured for cell fluorescence using a cytometry, and the data was processed with FlowJo and analyzed with GraphPad.
Following the protocol of Example 11, the bispecific antibodies of the disclosure were tested for their binding capability to Jurkat cells.

[7] = target: T3, mouse BCMA on HEK293A/mouse BCMA cells; test: flow cytometry on HEK293A/mouse BCMA cells [continued) E]
Method: as §3, §4

[8] = target: monkey BCMA on HEK293A/monkey BCMA cells (monkey, UniProt Q02223 1-184 (human entry)); test: flow cytometry on HEK293A/monkey BCMA cells
Method: as §3, §4

T4 sequence (P04234 22-105, form in doubt, chain 1 of 2): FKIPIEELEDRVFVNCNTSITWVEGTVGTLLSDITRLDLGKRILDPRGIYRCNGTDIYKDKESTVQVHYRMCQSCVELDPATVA
T4 sequence (P07766 23-126, form in doubt, chain 2 of 2): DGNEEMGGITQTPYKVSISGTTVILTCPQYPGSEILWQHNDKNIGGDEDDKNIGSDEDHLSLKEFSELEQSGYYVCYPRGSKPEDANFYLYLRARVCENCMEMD
T5 sequence (P04234 22-171, chain 1 of 2): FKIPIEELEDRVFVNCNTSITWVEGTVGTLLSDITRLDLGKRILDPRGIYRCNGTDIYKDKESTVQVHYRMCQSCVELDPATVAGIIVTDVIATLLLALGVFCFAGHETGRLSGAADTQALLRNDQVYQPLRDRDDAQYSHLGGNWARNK
T5 sequence (P07766 23-207, chain 2 of 2): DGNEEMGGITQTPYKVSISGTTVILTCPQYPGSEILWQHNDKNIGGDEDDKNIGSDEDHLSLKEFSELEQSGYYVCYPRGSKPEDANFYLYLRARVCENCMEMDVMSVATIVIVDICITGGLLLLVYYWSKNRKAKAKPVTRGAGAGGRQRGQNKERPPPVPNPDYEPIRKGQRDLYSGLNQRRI
monkey BCMA on HEK293A/monkey BCMA cells, sequence (Q02223 other isoform, or with tags, fused parts or gaps): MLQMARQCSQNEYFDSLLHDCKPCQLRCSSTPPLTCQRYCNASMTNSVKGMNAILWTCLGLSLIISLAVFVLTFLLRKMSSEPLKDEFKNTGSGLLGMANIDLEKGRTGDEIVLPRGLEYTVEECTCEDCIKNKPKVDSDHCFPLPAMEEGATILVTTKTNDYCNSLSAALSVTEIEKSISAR

Row | Binder | Kd [1] [nM] | Kd [2] [nM] | EC50 [3] [µg/mL] | EC50 [4] [µg/mL] | EC50 [5] [µg/mL] | EC50 [6] [µg/mL] | EC50 (read off the curve) [6] [µg/mL] | binding result [7] | EC50 [8] [µg/mL]
1 | anti-CD3/BCMA bispecific antibody MBS305-H1-KIH (bispecific antibody, human IgG1, kappa, L234A L235A, N297A) heavy 1: QVQLVQSGAEVKKPGASVKVSCKASGYTFTNHIIHWVRQAPGQGLEWMGYINPYPGYHGYNDKFSGRATMTSDTSTSTVYMELSSLRSEDTAVYYCARDGYYRDQDVLDYWGQGTLVTVSSASTKGPSVFPLAPSSKSTSGGTAALGCLVKDYFPEPVTVSWNSGALTSGVHTFPAVLQSSGLYSLSSVVTVPSSSLGTQTYICNVNHKPSNTKVDKKVEPKSCDKTHTCPPCPAPEAAGGPSVFLFPPKPKDTLMISRTPEVTCVVVDVSHEDPEVKFNWYVDGVEVHNAKTKPREEQYASTYRVVSVLTVLHQDWLNGKEYKCKVSNKALPAPIEKTISKAKGQPREPQVYTLPPSREEMTKNQVSLSCAVKGFYPSDIAVEWESNGQPENNYKTTPPVLDSDGSFFLVSKLTVDKSRWQQGNVFSCSVMHEALHNHYTQKSLSLSPGK light 1: not shown heavy 2: QVQLVQSGAEVKKPGASVKVSCKASGYTFTNHIIHWVRQAPGQGLEWMGYINPYPGYHGYNDKFSGRATMTSDTSTSTVYMELSSLRSEDTAVYYCARDGYYRDQDVLDYWGQGTLVTVSSGGGGSGGGGSGGGGSGGGGSDIQMTQSPSSLSASVGDRVTITCKASQDISQYLNWYQQKPGKAPKLLIYYTSGLHPGVPSRFSGSGSGTDFTFTISSLEPEDEATYYCQQGYALPWTFGQGTKLTAKRGGGGSGGGGSGGGGSEVQLVESGGGLVQPGRSLRLSCAASGFTFSDYTMHWVRQAPGKGLEWVSGISWNTGTIGYADSVKGRFTISRDNAKKSLYLQMNSLRAEDTALYYCAKDNSGYGHYYFGMDVWGQGTTVTVASASTKGPSVFPLAPSSKSTSGGTAALGCLVKDYFPEPVTVSWNSGALTSGVHTFPAVLQSSGLYSLSSVVTVPSSSLGTQTYICNVNHKPSNTKVDKKVEPKSCDKTHTCPPCPAPEAAGGPSVFLFPPKPKDTLMISRTPEVTCVVVDVSHEDPEVKFNWYVDGVEVHNAKTKPREEQYASTYRVVSVLTVLHQDWLNGKEYKCKVSNKALPAPIEKTISKAKGQPREPQVYTLPPSREEMTKNQVSLWCLVKGFYPSDIAVEWESNGQPENNYKTTPPVLDSDGSFFLYSKLTVDKSRWQQGNVFSCSVMHEALHNHYTQKSLSLSPGK light 2: not shown | 8.09 | 0.168 | 0.0468 | 0.221 | 0.0117 | 0.00173 | ~2 | no binding (tested: about 30000 ng/ml (LOG10 about 4.5)) | 0.337
2 | anti-CD3/BCMA bispecific antibody MBS305-H2-KIH (bispecific antibody, human IgG1, kappa, L234A L235A, N297A) heavy 1: QVQLVQSGAEVKKPGASVKVSCKASGYTFTNHIIHWVRQAPGQGLEWMGYINPYPGYHGYNDKFSGRATMTSDTSTSTVYMELSSLRSEDTAVYYCARDGYYRDQDVLDYWGQGTLVTVSSASTKGPSVFPLAPSSKSTSGGTAALGCLVKDYFPEPVTVSWNSGALTSGVHTFPAVLQSSGLYSLSSVVTVPSSSLGTQTYICNVNHKPSNTKVDKKVEPKSCDKTHTCPPCPAPEAAGGPSVFLFPPKPKDTLMISRTPEVTCVVVDVSHEDPEVKFNWYVDGVEVHNAKTKPREEQYASTYRVVSVLTVLHQDWLNGKEYKCKVSNKALPAPIEKTISKAKGQPREPQVYTLPPSREEMTKNQVSLSCAVKGFYPSDIAVEWESNGQPENNYKTTPPVLDSDGSFFLVSKLTVDKSRWQQGNVFSCSVMHEALHNHYTQKSLSLSPGK light 1: not shown heavy 2: QVQLVQSGAEVKKPGASVKVSCKASGYTFTNHIIHWVRQAPGQGLEWMGYINPYPGYHGYNDKFSGRATMTSDTSTSTVYMELSSLRSEDTAVYYCARDGYYRDQDVLDYWGQGTLVTVSSGGGGSGGGGSGGGGSGGGGSDIQMTQSPSSLSASVGDRVTITCKASQDISQYLNWYQQKPGKAPKLLIYYTSGLHPGVPSRFSGSGSGTDFTFTISSLEPEDEATYYCQQGYALPWTFGQGTKLTAKRGGGGSGGGGSGGGGSEVQLVESGGGLVQPGRSLRLSCAASGFTFDDFAMHWVRQAPGKGLEWVSGITWNSGSVGYADSVKGRFTISRDNAKKSLYLQMNSLRAEDTALYYCAKDRSGYGHYYYGMDVWGQGTTVTVASASTKGPSVFPLAPSSKSTSGGTAALGCLVKDYFPEPVTVSWNSGALTSGVHTFPAVLQSSGLYSLSSVVTVPSSSLGTQTYICNVNHKPSNTKVDKKVEPKSCDKTHTCPPCPAPEAAGGPSVFLFPPKPKDTLMISRTPEVTCVVVDVSHEDPEVKFNWYVDGVEVHNAKTKPREEQYASTYRVVSVLTVLHQDWLNGKEYKCKVSNKALPAPIEKTISKAKGQPREPQVYTLPPSREEMTKNQVSLWCLVKGFYPSDIAVEWESNGQPENNYKTTPPVLDSDGSFFLYSKLTVDKSRWQQGNVFSCSVMHEALHNHYTQKSLSLSPGK light 2: not shown | 256 | 0.206 | 0.141 | 0.285 | 0.0124 | 0.00328 | – | no binding (tested: about 30000 ng/ml (LOG10 about 4.5)) | 0.373
